Three molecules from paper PMC3630463 (Nature communications, 2013) can be followed below.

Usually inhibition stands for the share of the control response that was lost under treatment.

Assay [1] addresses T1, rVps1 (His-Vps1; yeast dynamin homolog Vps1) (Saccharomyces cerevisiae, UniProt P21576).
T1 sequence (P21576 1-704): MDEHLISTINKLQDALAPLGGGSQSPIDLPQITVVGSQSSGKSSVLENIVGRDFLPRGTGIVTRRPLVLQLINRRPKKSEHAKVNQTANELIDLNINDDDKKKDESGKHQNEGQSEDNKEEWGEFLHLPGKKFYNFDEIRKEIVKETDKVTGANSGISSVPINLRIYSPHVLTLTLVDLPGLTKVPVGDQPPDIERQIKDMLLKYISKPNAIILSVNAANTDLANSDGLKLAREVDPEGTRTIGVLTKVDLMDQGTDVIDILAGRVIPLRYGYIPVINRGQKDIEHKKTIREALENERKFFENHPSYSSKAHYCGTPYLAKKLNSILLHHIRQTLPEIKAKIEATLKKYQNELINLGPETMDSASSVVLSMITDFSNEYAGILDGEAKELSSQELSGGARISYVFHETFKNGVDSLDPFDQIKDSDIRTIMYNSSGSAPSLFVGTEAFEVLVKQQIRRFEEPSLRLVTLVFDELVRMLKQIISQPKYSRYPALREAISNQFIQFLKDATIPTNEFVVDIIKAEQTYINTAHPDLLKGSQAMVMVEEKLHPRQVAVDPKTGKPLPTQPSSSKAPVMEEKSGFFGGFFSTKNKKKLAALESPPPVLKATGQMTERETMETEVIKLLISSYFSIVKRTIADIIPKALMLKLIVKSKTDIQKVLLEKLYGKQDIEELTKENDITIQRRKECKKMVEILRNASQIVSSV
The assay is described as follows: GTPase assay, released Pi by malachite green. The format is biochemical. To be noted: read-out: % inhibition at 100 uM.

For the next assay, the target named is T2, recombinant Vps1 (yeast, UniProt P21576 1-704).
T2 sequence: T1 sequence (P21576 1-704)
The assay is described as follows: far-Western, overlay or dot blot.

On to `O=C(N/N=C/c1ccc(O)c(O)c1)c1cc2ccccc2cc1O` [dynasore], for which the inhibition at 100 µM in assay [1] is roughly 60%.

B1: Vam3 full-length (1–252) (domain or fragment)
chain: MSFFDIEAQSSKGNSQQEPQFSTNQKTKELSNLIETFAEQSRVLEKECTKIGSKRDSKELRYKIETELIPNCTSVRDKIESNILIHQNGKLSADFKNLKTKYQSLQQSYNQRKSLFPLKTPISPGTSKERKDIHPRTEAVRQDPESSYISIKVNEQSPLLHNEGQHQLQLQEEQEQQQQGLSQEELDFQTIIHQERSQQIGRIHTAVQEVNAIFHQLGSLVKEQGEQVTTIDENISHLHDNMQNANKQLTRA
For B1, the binding result in the assay with recombinant Vps1 is “binds”.

B2: SNARE domain of Vam3 (190–252) (domain or fragment)
chain: TIIHQERSQQIGRIHTAVQEVNAIFHQLGSLVKEQGEQVTTIDENISHLHDNMQNANKQLTRA
Turning to B2, the binding result with recombinant Vps1 is reported as “binds”.
